Measurements published in the supplement of paper PMC10567573.

B1: ZBED2 (parent)
chain: FHLAPARAGHHPNQYATCRLCGRQ

Variants of: B1
Test: protein stability index of a GFP-peptide fusion (GPS, HEK-293T) (PSI 1-6); higher = more stable
Conditions: c terminus: a fixed tail appended
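Further: lentivirally expressed fusions sorted by FACS into six bins by GFP to DsRed ratio, PSI derived from sequencing read proportions per bin multiplied by bin number.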

Variant	protein stability index
MHLAPARAGHHPNQYATCRLCGRQ	2.1
AHLAPARAGHHPNQYATCRLCGRQ	2.9
GHLAPARAGHHPNQYATCRLCGRQ	1.71
EHLAPARAGHHPNQYATCRLCGRQ	3.31
WHLAPARAGHHPNQYATCRLCGRQ	1.59
CHLAPARAGHHPNQYATCRLCGRQ	2.58
DHLAPARAGHHPNQYATCRLCGRQ	3.36
QHLAPARAGHHPNQYATCRLCGRQ	2.78
HHLAPARAGHHPNQYATCRLCGRQ	2.46
THLAPARAGHHPNQYATCRLCGRQ	2.45
RHLAPARAGHHPNQYATCRLCGRQ	2.77
FHLAPYRAGHHPNQYATCRLCGRQ	2.19
FHLAPCRAGHHPNQYATCRLCGRQ	3
FHLAPLRAGHHPNQYATCRLCGRQ	1.67
FHLAPVRAGHHPNQYATCRLCGRQ	2.15
FHLAPNRAGHHPNQYATCRLCGRQ	1.65
FHLAPKRAGHHPNQYATCRLCGRQ	1.4
FHLAPARTGHHPNQYATCRLCGRQ	1.83
FHLAPARYGHHPNQYATCRLCGRQ	3.15
FHLAPAREGHHPNQYATCRLCGRQ	2.34
FHLAPARLGHHPNQYATCRLCGRQ	2.47
FHLAPARGGHHPNQYATCRLCGRQ	2.87
FHLAPARCGHHPNQYATCRLCGRQ	3.28
FHLAPARHGHHPNQYATCRLCGRQ	1.75

Variant	protein stability index
FHLAPARQGHHPNQYATCRLCGRQ	2.02
FHLAPARIGHHPNQYATCRLCGRQ	2.73
FHLAPARNGHHPNQYATCRLCGRQ	2.31
FHMAPARAGHHPNQYATCRLCGRQ	1.84
FHYAPARAGHHPNQYATCRLCGRQ	1.95
FHGAPARAGHHPNQYATCRLCGRQ	1.53
FHNAPARAGHHPNQYATCRLCGRQ	2.23
FHTAPARAGHHPNQYATCRLCGRQ	2.25
FHSAPARAGHHPNQYATCRLCGRQ	1.45
FHQAPARAGHHPNQYATCRLCGRQ	1.13
FHFAPARAGHHPNQYATCRLCGRQ	1.93
FDLAPARAGHHPNQYATCRLCGRQ	2.41
FMLAPARAGHHPNQYATCRLCGRQ	2.43
FLLAPARAGHHPNQYATCRLCGRQ	1.86
FFLAPARAGHHPNQYATCRLCGRQ	1.42
FQLAPARAGHHPNQYATCRLCGRQ	2.51
FPLAPARAGHHPNQYATCRLCGRQ	2.78
FALAPARAGHHPNQYATCRLCGRQ	1.46
FCLAPARAGHHPNQYATCRLCGRQ	1.66
FTLAPARAGHHPNQYATCRLCGRQ	2.76
FELAPARAGHHPNQYATCRLCGRQ	2.6
FNLAPARAGHHPNQYATCRLCGRQ	2.65
FHLAPARAGHHPNQYATCRLCTRQ	2.82
FHLAPARAGHHPNQYATCRLCARQ	1.03

Variant	protein stability index
FHLAPARAGHHPNQYATCRLCLRQ	2.57
FHLAPARAGHHPNQYATCRLCWRQ	1.7
FHLAPARAGHHPNQYATCRLCHRQ	2.05
FHLAPARAGHHPNQYATCRLCQRQ	1.82
FHLAPARAGHHPNQYATCRLCCRQ	2.87
FHLAPARAGHHPNQYATCRLCMRQ	1.21
FHLAPARAGHHPNQYATCRLCPRQ	2.92
FHLHPARAGHHPNQYATCRLCGRQ	1.95
FHLKPARAGHHPNQYATCRLCGRQ	2.32
FHLCPARAGHHPNQYATCRLCGRQ	2.48
FHLFPARAGHHPNQYATCRLCGRQ	2.14
FHLTPARAGHHPNQYATCRLCGRQ	1.84
FHLNPARAGHHPNQYATCRLCGRQ	1.48
FHLGPARAGHHPNQYATCRLCGRQ	2.19
FHLMPARAGHHPNQYATCRLCGRQ	1.39
FHLIPARAGHHPNQYATCRLCGRQ	2.53
FHLAPARAGHHPNQYATCRLCGWQ	2.46
FHLAPARAGHHPNQYATCRLCGYQ	1.83
FHLAPARAGHHPNQYATCRLCGSQ	1.52
FHLAPARAGHHPNQYATCRLCGIQ	1.93
FHLAPARAGHHPNQYATCRLCGCQ	1.32
FHLAPARAGHHPNQYATCRLCGKQ	1.37
FHLAPARAGHHPNQYAECRLCGRQ	1.73
FHLAPARAGHHPNQYACCRLCGRQ	1.68

Variant	protein stability index
FHLAPARAGHHPNQYADCRLCGRQ	2.85
FHLAPARAGHHPNQYAMCRLCGRQ	2.42
FHLAPARAGHHPNQYAYCRLCGRQ	2.15
FHLAPARAGHHPNQYAPCRLCGRQ	1.69
FHLAPARAGHHPNQYALCRLCGRQ	1.25
FHLAPARAGHHPNQYATCRLCGRL	2.19
FHLAPARAGHHPNQYATCRLCGRY	1.53
FHLAPARAGHHPNQYATCRLCGRC	1.84
FHLAPARAGHHPNQYATCRLCGRT	1.65
FHLAPARAGHHPNQYATCRLCGRM	1.24
FHLAPARAGHHPNQYATCRLCGRE	2.12
FHLAPARAGHHPNQYATCRLCGRH	2
FHLAPARAGHHPNQYATCRLCGRP	1.91
FHLAPARAGHHPNQYATSRLCGRQ	2.4
FHLAPARAGHHPNQYATYRLCGRQ	1.93
FHLAPARAGHHPNQYATMRLCGRQ	1.93
FHLAPARAGHHPNQYATERLCGRQ	3.08
FHLAPARAGHHPNQYATKRLCGRQ	2.22
FHLAPARAGHHPNQYATTRLCGRQ	2.87
FHLAPARAGHHPNQYATPRLCGRQ	2.9
FHLAPARAGHHPNQYATFRLCGRQ	1.93
FHLAPARAGHHPNQYATHRLCGRQ	2.27
